# Earlier results as cited in US5993783A, “Method and apparatus for pulmonary administration of dry powder α1-antitrypsin” (Inhale Therapeutic Systems, priority 1998, dated 1999).
# Settings: similar sheep model, Smith et al. 1989
substance,measurement,value
"α1AT: α1-antitrypsin, a protease inhibitor with inhibitory activity toward neutrophil elastase","rate of clearance of α1AT out of the lungs, % of the total rate of α1AT transported out of the lung",16.1±10.4%
